B1: ZU5A-ZU5B fragment of human erythrocyte ankyrin (ankyrin-R), residues 911–1233 (domain or fragment, UniProt P16157 911-1233, looked up)
chain: TGFLVSFMVDARGGSMRGSRHNGLRVVIPPRTCAAPTRITCRLVKPQKLSTPPPLAEEEGLASRIIALGPTGAQFLSPVIVEIPHFASHGRGDRELVVLRSENGSVWKEHRSRYGESYLDQILNGMDEELGSLEELEKKRVCRIITTDFPLYFVIMSRLCQDYDTIGPEGGSLKSKLVPLVQATFPENAVTKRVKLALQAQPVPDELVTKLLGNQATFSPIVTVEPRRRKFHRPIGLRIPLPPSWTDNPRDSGEGDTTSLRLLCSVIGGTDQAQWEDITGTTKLVYANECANFTTNVSARFWLSDCPRTAEAVNFATLLYKEL
B2: Ankyrin-R Death domain (DD), residues 1394–1497 (domain or fragment, human, UniProt P16157 1394-1497, looked up)
chain: PGSLSGTEQAEMKMAVISEHLGLSWAELARELQFSVEDINRIRVENPNSLLEQSVALLNLWVIREGQNANMENLYTALQSIDRGEIVNMLEGSGRQSRNLKPDR

Assays:
[1] = biological target: T1, biotinylated human erythrocyte β-spectrin repeats 12–17 (human, UniProt P11277 1486-2083, biotin (biotinylated; site not stated)); assay: SPR
T1 sequence (looked up): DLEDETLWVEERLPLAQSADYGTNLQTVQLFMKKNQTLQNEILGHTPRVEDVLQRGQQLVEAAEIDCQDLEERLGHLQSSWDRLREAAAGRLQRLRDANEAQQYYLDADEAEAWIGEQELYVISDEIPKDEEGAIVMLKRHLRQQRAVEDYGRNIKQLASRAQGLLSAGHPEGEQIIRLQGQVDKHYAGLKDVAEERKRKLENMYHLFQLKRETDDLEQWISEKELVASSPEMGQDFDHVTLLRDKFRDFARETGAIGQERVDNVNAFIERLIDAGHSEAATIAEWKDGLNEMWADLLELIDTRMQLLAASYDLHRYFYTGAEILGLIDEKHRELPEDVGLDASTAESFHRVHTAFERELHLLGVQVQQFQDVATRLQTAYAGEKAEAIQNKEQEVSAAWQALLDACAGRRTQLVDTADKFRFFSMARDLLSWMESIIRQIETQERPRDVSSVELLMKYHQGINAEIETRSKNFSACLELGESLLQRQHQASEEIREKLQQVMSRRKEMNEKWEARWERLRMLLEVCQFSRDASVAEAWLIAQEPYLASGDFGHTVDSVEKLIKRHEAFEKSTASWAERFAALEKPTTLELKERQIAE

[2] = biological target: the molecule itself; assay: SEC

| Binder | Kd [1] | stoichiometry N [2] |
| --- | --- | --- |
| B1 | 8.3 nM | – |
| B2 | – | 2 |

From paper PMC3312341 (Journal of Molecular Biology, 2012)
